Source: PMC7866390, “A Novel Multiprotein Bridging Factor 1-Like Protein Induces Cyst Wall Protein Gene Expression and Cyst Differentiation in Giardia lamblia”

B1: 18S-30/-1 (dsDNA)
DNA 1: GGCGCCCGGCCCGCGGCGCCCGCGCCCGGC
DNA 2: GCCGGGCGCGGGCGCCGCGGGCCGGGCGCC
B2: poly(A) with T insertion (dsDNA)
DNA 1: AAAAAAAAAAATAAAAAAAAAAA
DNA 2: TTTTTTTTTTTATTTTTTTTTTT
B3: cwp2-30/+8 (dsDNA)
DNA 1: CAGCAGCTCAACAGTGGCTGGGAAAATAAAATGATCGC
DNA 2: GCGATCATTTTATTTTCCCAGCCACTGTTGAGCTGCTG
B4: cwp3-60/-31 (dsDNA)
DNA 1: GTAGACTTTGAGTTACTTAGCTCTACAGTT
DNA 2: AACTGTAGAGCTAAGTAACTCAAAGTCTAC
B5: myb2-30/-1 (dsDNA)
DNA 1: TACTAAAATAATAATTACTCTGTACTGCTA
DNA 2: TAGCAGTACAGAGTAATTATTATTTTAGTA
B6: poly(A) with TT insertion (dsDNA)
DNA 1: AAAAAAAAAAATTAAAAAAAAAA
DNA 2: TTTTTTTTTTAATTTTTTTTTTT
B7: cwp2-60/-31 (dsDNA)
DNA 1: TAGACTGATGCTGTAGAGGTCAACAGATAA
DNA 2: TTATCTGTTGACCTCTACAGCATCAGTCTA
B8: poly(A) (dsDNA)
DNA 1: AAAAAAAAAAAAAAAAAAAAAAA
DNA 2: TTTTTTTTTTTTTTTTTTTTTTT
B9: cwp1-90/-46 (dsDNA)
DNA 1: CTGGCTAACAGTCTACAGTCTACAATTTACAGTATACAATCTACA
DNA 2: TGTAGATTGTATACTGTAAATTGTAGACTGTAGACTGTTAGCCAG
B10: ran-51/-20 (dsDNA)
DNA 1: TAAAATAAATTAAATCGAAATTAAAACTTTAA
DNA 2: TTAAAGTTTTAATTTCGATTTAATTTATTTTA
B11: cwp1-45/-1 (dsDNA)
DNA 1: GTTTACAACTCTCAGATCAAGAAACACAGAAATAAAATATCAGGG
DNA 2: CCCTGATATTTTATTTCTGTGTTTCTTGATCTGAGAGTTGTAAAC

Target: T1, MBF1 (Giardia lamblia, UniProt A8BZ03 1-107)
T1 sequence: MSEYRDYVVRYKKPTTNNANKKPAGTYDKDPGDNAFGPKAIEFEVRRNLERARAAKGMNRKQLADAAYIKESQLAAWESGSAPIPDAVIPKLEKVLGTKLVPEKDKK
Assay: EMSA; EMSA, 5 ng purified protein, 5'-end-labeled ds oligonucleotides, 6% polyacrylamide gel; buffer, salt, pH and temperature not given (cited to ref 19)
Conditions: protein: recombinant; tags: C-terminal V5 and His (pET101/D-TOPO)

Binder | binding result
B1 | no binding

Same assay, conditions: protein: recombinant; tags: C-terminal V5 and His (pET101/D-TOPO); label: 5'-32P

Binder | binding result
B2 | binds
B3 | binds
B4 | binds
B5 | binds
B6 | binds
B7 | binds
B8 | binds
B9 | binds
B10 | binds

Target: T1, MBF1
Assay: EMSA; supershifted by anti-V5-HRP; competed by 200-fold cold cwp1-45/-1; EMSA, 5 ng purified protein, 5'-end-labeled ds oligonucleotides, 6% polyacrylamide gel; buffer, salt, pH and temperature not given (cited to ref 19)
Conditions: protein: recombinant; tags: C-terminal V5 and His (pET101/D-TOPO); label: 5'-32P

Binder | binding result
B11 | binds
